This is an account of results in patent US20200247889A1 (published 2020).

Experiment [1] has as its target T1, mouse TREM1 (mouse, UniProt Q9JKE2 21-230).
T1 chain: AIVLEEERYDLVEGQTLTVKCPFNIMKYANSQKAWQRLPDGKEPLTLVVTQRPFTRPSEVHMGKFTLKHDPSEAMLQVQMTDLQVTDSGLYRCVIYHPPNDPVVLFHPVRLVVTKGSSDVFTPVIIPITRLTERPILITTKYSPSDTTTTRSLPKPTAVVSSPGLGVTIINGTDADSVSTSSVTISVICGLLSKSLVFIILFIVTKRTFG
The experiment can be described thus: cell binding.

Experiment [2] has as its target T1, mouse TREM1. The experiment can be described thus: SPR (Biacore); avid. A general note: In SPR one partner is held on a chip, and binding of the other changes the refractive index at the surface.
Experiment [3] concerns the target T1, mouse TREM1. The experiment can be described thus: cell binding; BALB/c splenocyte neutrophils.
In experiment [4] the target is T2, cynomolgus TREM1 (cynomolgus, UniProt A0A2K5VHG8 21-233).
T2 chain: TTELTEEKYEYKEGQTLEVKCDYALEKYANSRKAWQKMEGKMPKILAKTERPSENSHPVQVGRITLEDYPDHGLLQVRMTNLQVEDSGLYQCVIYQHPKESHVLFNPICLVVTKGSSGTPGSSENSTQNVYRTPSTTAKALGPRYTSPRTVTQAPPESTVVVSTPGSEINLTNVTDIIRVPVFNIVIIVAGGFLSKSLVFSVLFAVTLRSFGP
Put plainly: flow cytometry cell binding. (In general: Flow cytometry measures light scatter and fluorescence of single cells or particles in a stream.)

Experiment [5] addresses T2, cynomolgus TREM1. Put plainly: cell binding.
In experiment [6] the target is 9067s. Put plainly: SPR.

B1: afucosylated Pi-4928 (antibody, V domains shown)
VH: QVQLKESGPGLVQPSQTLSLTCTVSGFSITSSNVYWFRQPPGKGLEWMGNIWGDGSTDYNSSLKSRLTLSRDTSKNQVFLKINSLQSEDTATYFCTRSWEYYFDHWGQGVVVTVSS
VL: DIVLTQSPALAVSPGQRATLSCRASQSVTLSNVNLMNWYQQKPGQQPKLLIYHASNLASGIPTRFSGSGSGTDFTLTIDPVQADDIAAYYCQQSGESPRTFGGGTKVELKR
modifications: afucosylated Fc glycan
Usually EC50 stands for the midpoint of the concentration-response curve. By Kd is commonly meant the free concentration of one partner at which half of the binding sites on the other are occupied at equilibrium, for simple one-to-one binding. A low value points to tighter binding. The molecule B1 showed an EC50 in experiment [1] of 2.32 nM. The molecule also showed a Kd in experiment [2] of 0.11 nM.

B2: Pi-4928 (antibody, V domains shown)
VH: QVQLKESGPGLVQPSQTLSLTCTVSGFSITSSNVYWFRQPPGKGLEWMGNIWGDGSTDYNSSLKSRLTLSRDTSKNQVFLKINSLQSEDTATYFCTRSWEYYFDHWGQGVVVTVSS
VL: DIVLTQSPALAVSPGQRATLSCRASQSVTLSNVNLMNWYQQKPGQQPKLLIYHASNLASGIPTRFSGSGSGTDFTLTIDPVQADDIAAYYCQQSGESPRTFGGGTKVELKR
As for B2, the figures for the EC50 in experiment [3] and in experiment [1] were 1.36 nM and 1.41 nM, respectively. In addition, in experiment [2], the Kd came out at 0.11 nM.

B3: Pi-9772 (antibody, V domains shown)
VH: EVQLVESGGGLVQPGGSLRLSCAASGFDLSYSSMHWVRQAPGKGLEWVAYISPYSGYTSYADSVKGRFTISADTSKNTAYLQMNSLRAEDTAVYYCARHGSWSYGFSSGFDYWGQGTLVTVSS
VL: DIQMTQSPSSLSASVGDRVTITCRASQSVSSAVAWYQQKPGKAPKLLIYSASSLYSGVPSRFSGSRSGTDFTLTISSLQPEDFATYYCQQYAYYYPITFGQGTKVEIKR
In the case of B3, the EC50 in experiment [3] turned out to be 6.83 nM; in experiment [1], 2.85 nM. Also, binding in experiment [2] was characterised by a dissociation constant (Kd) of 0.15 nM.

B4: afucosylated Pi-9772 (antibody, V domains shown)
VH: EVQLVESGGGLVQPGGSLRLSCAASGFDLSYSSMHWVRQAPGKGLEWVAYISPYSGYTSYADSVKGRFTISADTSKNTAYLQMNSLRAEDTAVYYCARHGSWSYGFSSGFDYWGQGTLVTVSS
VL: DIQMTQSPSSLSASVGDRVTITCRASQSVSSAVAWYQQKPGKAPKLLIYSASSLYSGVPSRFSGSRSGTDFTLTISSLQPEDFATYYCQQYAYYYPITFGQGTKVEIKR
modifications: afucosylated Fc glycan
Molecule B4 displayed a 50% effective concentration (EC50) in experiment [1] of 6.35 nM. The molecule further came in with a Kd in experiment [2] of 0.71 nM.

B5: mAb0170 (antibody, V domains shown)
VH: EVQLVESGGGLVQPGGSLKLSCAASGFTFSTYAMHWVRQASGKGLEWVGRIRTKSSNYATYYAASVKGRFTISRDDSKNTAYLQMNSLKTEDTAVYYCTRDMGIRRQFAYWGQGTLVTVSS
VL: DIVLTQSPDSLAVSLGERATINCRASESVDTFDYSFLHWYQQKPGQPPKLLIYRASNLESGVPDRFSGSGSGTDFTLTISSLQAEDVAVYYCQQSNEDPYTFGQGTKLEIK
With B5, the concentration for a half-maximal effect (EC50) in experiment [4] and in experiment [5] was 0.13 nM each time.

B6: Pi-9067L (antibody, V domains shown)
VH: EVQLVESGGGLVQPGGSLRLSCAASGFDIYSYSIHWVRQAPGKGLEWVAYIYPSYGYTSYADSVKGRFTISADTSKNTAYLQMNSLRAEDTAVYYCARGAVAALDYWGQGTLVTVSS
VL: DIQMTQSPSSLSASVGDRVTITCRASQSVSSAVAWYQQKPGKAPKLLIYSASSLYSGVPSRFSGSRSGTDFTLTISSLQPEDFATYYCQQYGVSGYSLITFGQGTKVEIKR
With B6, the 50% effective concentration (EC50) in experiment [3] amounted to 0.98 nM; in experiment [1] it was 1.85 nM. The same molecule registered a dissociation constant (Kd) in experiment [2] of 0.09 nM.

B7: afucosylated Pi-9067L (antibody, V domains shown)
VH: EVQLVESGGGLVQPGGSLRLSCAASGFDIYSYSIHWVRQAPGKGLEWVAYIYPSYGYTSYADSVKGRFTISADTSKNTAYLQMNSLRAEDTAVYYCARGAVAALDYWGQGTLVTVSS
VL: DIQMTQSPSSLSASVGDRVTITCRASQSVSSAVAWYQQKPGKAPKLLIYSASSLYSGVPSRFSGSRSGTDFTLTISSLQPEDFATYYCQQYGVSGYSLITFGQGTKVEIKR
modifications: afucosylated Fc glycan
In experiment [1], B7 yielded a concentration giving a half-maximal response (EC50) of 2.9 nM. In experiment [2], this molecule returned a dissociation constant (Kd) of 0.15 nM.

B8: Protein binding (receptor)
chain: AIVLEEERYDLVEGQTLTVKCPFNIMKYANSQKAWQRLPDGKEPLTLVVTQRPFTRPSEVHMGKFTLKHDPSEAMLQVQMTDLQVTDSGLYRCVIYHPPNDPVVLFHPVRLVVTKGSSDVFTPVIIPITRLTERPILITTKYSPSDTTTTRSLPKPTAVVSSPGLGVTIINGTDADSVSTSSVTISVICGLLSKSLVFIILFIVTKRTFG
Regarding B8, the Kd in experiment [6] was 0.87 nM.
